According to paper PMC4378939:

Key:
[1] = biological target: single domain antibody against GFP with a six histidine-tag at the C-terminal (GFP-Nb) (llama); test: SPR; GFP-Nb heated for 30 min at 25-100°C and cooled 30 min at room temperature, then captured on Ni:NTA chip; 30 nM GFP as analyte; NTA running buffer, 25°C; constants given for the whole temperature range
[2] = biological target: single domain antibody against GFP with a six histidine-tag at the C-terminal (GFP-Nb) (llama); test: SPR; BIAcore X100, 25°C; GFP-Nb amine-coupled to a CM5 chip (~2500 R.U.), GFP as analyte (0.2-1000 nM; 10 nM with dissociation followed for 36000 s for koff); 10 mM HEPES pH 7.4, 0.15 M NaCl, 0.05% tween 20; KD from end-point response (Hill coefficient 1)
[3] = biological target: single domain antibody against GFP with a six histidine-tag at the C-terminal (GFP-Nb) (llama); test: SPR; GFP-Nb diluted in NTA running buffer of pH 4.0-10.5, then captured on Ni:NTA chip; 30 nM GFP as analyte; constants given for the whole pH range
[4] = biological target: single domain antibody against GFP with a six histidine-tag at the C-terminal (GFP-Nb) (llama); test: SPR; BIAcore X100, 25°C; GFP-Nb (~3 nM, ~50 R.U.) captured by its His tag on Ni:NTA chip, GFP as analyte (0.1-1000 nM), 30 μl/min; 10 mM HEPES pH 7.4, 0.15 M NaCl, 50 μM EDTA, 0.05% tween 20; kon and koff from 1:1 fit, KD from end-point response (Hill equation)
[5] = biological target: single domain antibody against GFP with a six histidine-tag at the C-terminal (GFP-Nb) (llama); test: SPR; BIAcore X100, 25°C; GFP-Nb captured by its His tag on anti-polyhistidine antibody amine-coupled to a CM5 chip, GFP as analyte, 30 μl/min; 10 mM HEPES pH 7.4, 0.15 M NaCl, 0.05% tween 20; kon and koff from 1:1 fit, KD from end-point response (Hill equation)
[6] = biological target: single domain antibody against GFP with a six histidine-tag at the C-terminal (GFP-Nb) (llama); test: SPR; GFP-Nb captured on Ni:NTA chip; 30 nM GFP diluted in NTA running buffer with different NaCl concentrations (up to 1 M) as analyte; constants given for all NaCl concentrations

Sequence of single domain antibody against GFP with a six histidine-tag at the C-terminal (GFP-Nb) (llama) (heavy, as listed by the source): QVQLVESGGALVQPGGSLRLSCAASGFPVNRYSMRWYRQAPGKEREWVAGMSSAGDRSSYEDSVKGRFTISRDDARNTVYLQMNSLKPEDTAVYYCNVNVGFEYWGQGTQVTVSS

koff [1]: 0.00063 s⁻¹ | kon [1]: 1.5e+06 M⁻¹ s⁻¹ | Kd [2]: 9.6 nM | koff [2]: 1.4e-05 s⁻¹ | koff [3]: 0.00064 s⁻¹ | kon [3]: 1.4e+06 M⁻¹ s⁻¹ | Kd [4]: 6.1 nM | koff [4]: 0.00071 s⁻¹ | kon [4]: 1.1e+06 M⁻¹ s⁻¹ | Kd [5]: 5.5 nM | koff [5]: 0.00029 s⁻¹ | kon [5]: 1e+06 M⁻¹ s⁻¹ | koff [6]: 0.00063 s⁻¹ | kon [6]: 1.5e+06 M⁻¹ s⁻¹
Substance: Green Fluorescent Protein (GFP) (from UniProt P42212 1-238) (natural protein)
